{
  "source": "paper PMC11322666",
  "about": "“UPF3B modulates endoplasmic reticulum stress through interaction with inositol-requiring enzyme-1α” (Cell Death & Disease, 2024)",
  "binders": {"B1": {"name": "UPF3B, endogenous (natural protein, human (endogenous in HEK293T and U2OS), UniProt Q9BZI7 1-483, looked up)", "chain": "MKEEKEHRPKEKRVTLLTPAGATGSGGGTSGDSSKGEDKQDRNKEKKEALSKVVIRRLPPTLTKEQLQEHLQPMPEHDYFEFFSNDTSLYPHMYARAYINFKNQEDIILFRDRFDGYVFLDNKGQEYPAIVEFAPFQKAAKKKTKKRDTKVGTIDDDPEYRKFLESYATDNEKMTSTPETLLEEIEAKNRELIAKKTTPLLSFLKNKQRMREEKREERRRREIERKRQREEERRKWKEEEKRKRKDIEKLKKIDRIPERDKLKDEPKIKVHRFLLQAVNQKNLLKKPEKGDEKELDKREKAKKLDKENLSDERASGQSCTLPKRSDSELKDEKPKRPEDESGRDYREREREYERDQERILRERERLKRQEEERRRQKERYEKEKTFKRKEEEMKKEKDTLRDKGKKAESTESIGSSEKTEKKEEVVKRDRIRNKDRPAMQLYQPGARSRNRLCPPDDSTKSGDSAAERKQESGISHRKEGGEE", "notes": "UPF3B, endogenous in HEK293T and U2OS cells; also called up-frameshift 3B; source: endogenous, HEK293T and U2OS lysates"}},
  "key": {"IRE1α^S724A": {"molecular_target": "T1, IRE1α^S724A (human, UniProt O75460 19-977, S724A)", "T1 construct": "IRE1α, human, point mutant; source: HEK293T and U2OS, transfected, in lysate", "T1 sequence (O75460 19-977 S724A)": "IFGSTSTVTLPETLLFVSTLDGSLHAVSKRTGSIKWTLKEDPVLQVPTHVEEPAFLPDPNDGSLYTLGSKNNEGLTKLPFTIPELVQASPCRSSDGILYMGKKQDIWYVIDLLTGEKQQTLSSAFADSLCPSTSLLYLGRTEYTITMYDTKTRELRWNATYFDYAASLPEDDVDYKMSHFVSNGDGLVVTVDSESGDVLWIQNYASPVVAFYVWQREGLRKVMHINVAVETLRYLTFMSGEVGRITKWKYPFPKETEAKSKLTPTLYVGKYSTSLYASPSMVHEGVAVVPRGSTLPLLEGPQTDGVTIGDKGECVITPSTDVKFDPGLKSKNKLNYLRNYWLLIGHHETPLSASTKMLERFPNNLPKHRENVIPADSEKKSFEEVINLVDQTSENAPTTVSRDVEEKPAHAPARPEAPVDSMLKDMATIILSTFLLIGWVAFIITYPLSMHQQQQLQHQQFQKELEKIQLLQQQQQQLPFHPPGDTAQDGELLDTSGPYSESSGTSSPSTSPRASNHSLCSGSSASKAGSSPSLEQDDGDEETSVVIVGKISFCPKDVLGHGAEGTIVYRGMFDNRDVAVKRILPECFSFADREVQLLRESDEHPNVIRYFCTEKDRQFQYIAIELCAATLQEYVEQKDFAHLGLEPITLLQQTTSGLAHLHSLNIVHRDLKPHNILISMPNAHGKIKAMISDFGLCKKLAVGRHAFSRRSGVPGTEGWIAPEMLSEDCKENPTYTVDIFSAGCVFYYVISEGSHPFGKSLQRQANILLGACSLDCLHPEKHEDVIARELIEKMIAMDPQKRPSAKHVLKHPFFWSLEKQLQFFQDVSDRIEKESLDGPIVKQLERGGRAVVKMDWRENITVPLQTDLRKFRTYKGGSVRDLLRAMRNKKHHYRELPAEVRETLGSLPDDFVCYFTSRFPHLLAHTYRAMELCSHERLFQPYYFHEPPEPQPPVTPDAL", "assay": "co-IP; lysates of transfected HEK293T or U2OS cells (24 h) in NETN buffer (20 mM Tris-HCl pH 8.0, 100 mM NaCl, 1 mM EDTA, 0.5% NP-40), IP with anti-Flag (M2) magnetic beads or the indicated antibodies, western blot; Fig. 3G two-way", "conditions": "partners not purified"}, "[1]": {"molecular_target": "T2, inositol-requiring enzyme-1α (IRE1α), endogenous (human (endogenous in HEK293T and U2OS), UniProt O75460 19-977)", "T2 construct": "inositol-requiring enzyme-1α (IRE1α), endogenous in HEK293T and U2OS cells; source: endogenous, HEK293T and U2OS lysates", "T2 sequence (O75460 19-977)": "as the sequence (O75460 19-977 S724A) above, with A706S counted along it", "assay": "co-IP; endogenous proteins, lysates of HEK293T and U2OS cells, IP with the indicated antibodies (anti-IRE1α), IgG as negative control; also with RNase A pre-treatment of lysates, in shUPF1 and shUPF2 cells, after STF-083010 or Kira6 (10 or 50 μM, 6 h), BiP overexpression, siBiP, UPF3B overexpression", "conditions": "partners not purified"}},
  "data": [
    {"binder": "B1", "values": [
      {"measurement": "fold change of the co-precipitate against IRE1α^WT", "setting": "IRE1α^S724A", "value": 3.2, "unit": "fold"},
      {"measurement": "fold change of the co-precipitate in Kira6-treated against control cells", "setting": "[1]", "value": 3.9, "unit": "fold"}
    ]}
  ]
}
